Patent US20220144922A1 (Adimab, published 2022)
Where a chain is given by its changes, count along the chain named.

B1: ADI-15620 (antibody, V domains shown)
VH: QVQLVQSGAEVKKPGASVKVSCKASGYTFTSYDINWVRQATGHGLEWMGWMSPNSGYTGYAQKFQGRVTMSRNTSTGTAYMELSSLRSEDTAVYYCAREARDLRVGATNFDYWGQGTLVTVSS
VL: QPVLTQPPSVSVSPGQTASITCSGDKLGDKYISWYQQRPGQSPVMVIYQDSKGPSGIPERFSGSNSGNTATLTISGTQAMDEADYYCQAWDSSIDVVFGGGTKLTVL
notes: IgG
B2: ADI-15616 (antibody, V domains shown)
VH: QVQLVQSGGGLVKPGGSLRLSCAASGFTFSDHYMTWIRQAPGKGLEWVSYISSTSSFTNYADSVKGRFTISRDNAKKSLYLQMNSLRAEDTAVYYCARDRNWGYAYGSDYWGQGTLVTVSS
VL: DIRLTQSPDTLSLSPGERATLSCRASQSVSSTYLAWYQQKPGQAPRLLIYGAFGRATGIPDRFSGSGSGTDFTLTISRLEPEDFAVYYCQLYGNSRTFGQGTKLEIK
notes: IgG
B3: ADI-15622 (antibody, V domains shown)
VH: QVQLQESGGGLVQPGGSLRLSCSASGFTFSNYGMSWVRQAPGKGLEWVSGIGVSDGSTHYADSVKGRFIISRDNSKNMLSLQMSSLGVDDTAVYYCARIVIVGVLRFQEWLSSDGMDVWGQGTTVTVSS
VL: DIVMTQTPSSVSASVGDRVTITCRASQAISGGLAWYQQKAGKAPKLLIYAASNLPSGVPSRFSGSGSGTDFTLTISSLQPEDFATYYCQQANSFPFTFGQGTRLEIK
notes: IgG; also called Antibody Number 187
B4: ADI-15574 (antibody, V domains shown)
VH: QVQLVQSGGGLVKPGGSLRLSCAASGFTISGYNMFWVRQPPGKGLEWVSSITAGSSYLNYADSVKGRFIVSRDNAKNSLYLQMNSLRAEDTAVYFCARAPLLPAMMDLWGQGTTVTVSS
VL: QSVLTQPPSVSGAPGQRVTISCTGSSSNIGAGYDVHWYQQLPGTAPKLLIYTNNNRPSGVPDRFSGSKSGTSASLAITGLQAEDEADYYCQSYDRSLNGYVFGTGTKLTVL
notes: IgG; also called Antibody Number 144
B5: ADI-15638 (antibody, V domains shown)
VH: EVQLVESGGGLVKPGGSLRLSCAASGFTITSYGMNWVRQAPGKGLEWVSSISSSSSFIHYGDSVKGRFTISRDNAKNSLYLQMNSLRAGDTAVYYCVRDSGHQDYRGDYWGQGTLVTVSS
VL: B4 VL with L4V, T19S, T78N, N98S, Y100W, T104G
notes: IgG
B6: ADI-15624 (antibody, V domains shown)
VH: QVQLVQSGGGLVKAGGSLRLSCAASGFTISGFYMTWIRQAPGKGLEWVSSISGSSSYTNYADSVKGRFTISRDNAKNSLYLHMNSLRAEDTAVYYCARIRPDDSSGYPDYWGQGTLVTVSS
VL: B4 VL with Y38C, T52G, R95S, N98S, Y100F, L108V
notes: IgG; also called Antibody Number 189
B7: ADI-15649 (antibody, V domains shown)
VH: EVQLVESGGGLVKPGGSLRLSCAAPGFTIRSYTMYWVRQAPGKGLEWVASISSSSSYIHYGDSVKGRFTIARDNAKNSLYLQMNSLRAEDTAVYYCVRDHCTGGSCYLNGMDVWGQGTTVTVSS
VL: B4 VL with S2P, S25T, T52G, R95S, N98S, Y100S, T104G
notes: IgG
B8: ADI-15635 (antibody, V domains shown)
VH: B4 VH with Q1E, V5L, Q6E
VL: B4 VL with L108V
notes: IgG; also called Antibody Number 200
B9: ADI-15648 (antibody, V domains shown)
VH: B4 VH with Q1E, Q6E
VL: B4 VL with L4V, K107T, L108V
notes: IgG; also called Antibody Number 212
B10: ADI-15631 (antibody, V domains shown)
VH: QVQLVESGGGLVQPGRSLRLSCAASGFTFDNYPMHWIRQAPGKGLEWVSGISWHSGSIGYADSVKGRFTISRDNAKNSLYLQMNSLRTEDTALYYCAKDAHYFDNSGHYYYGLDVWGQGTTVTVSS
VL: EIVLTQSPATLSVSPGERATLSCRASQNIINNLAWYQQKPGQAPRLLISGASTRATGIPARFSGSGSGTEFTLTITSLQSEDFAVYYCQQYNNWPLTFGGGTKVDIK
notes: IgG
B11: ADI-15621 (antibody, V domains shown)
VH: QVQLVQSGPEMKKPGSSVKVSCKPSGGTFSSYSVSWVRQAPGQGLEWMGGIIPIFGSSDYAQKFQGRLTITEDESTKTSYMQLNNLTSDDTAIYFCARDNYYVWTGHYPEFDFWGQGTLVTVSS
VL: ETTLTQSPGTLSLSLGETATLSCRASQSVRSDYLAWYQQKPGQAPRLLISGASNRATAIPERFTGSGSGTDFTLTISSLEPADFAVYYCQQYGSTPITFGQGTRLEIK
notes: IgG; also called Antibody Number 186
B12: ADI-15559 (antibody, V domains shown)
VH: QVQLVQSGAEVKKPGSSVKVSCKASGGSLSTYGIHWVRQAPGQGLEWVGGVMTVYGKTTYGQNFQGRVTIAVDRSTNTAYMELSSLTSDDTGTYYCATDSYYVWTGSYPPPFDLWGQGTLVTVSS
VL: EIVLTQTPGTQSLSPGQSATLSCRASHSVGNDYLAWYQQKPGQSPRLLIHGAYRRDSGIPDRFIGSGSGTDFTLTIDSLEPDDCAVYYCQQYGSWPLTFGGGTKVDIK
notes: IgG; also called Antibody Number 130
B13: ADI-15583 (antibody, V domains shown)
VH: QVQLVQSGAEVKKPGESLKISCKTSGYKFTNYWIGWVRQMPGKGLEWMGIIYPGDSDARYSPSFQGQVTFSADKSISTAYLQWSSLKASDTAMYYCARQDNSGWADFFPFDYWGQGTLVTVSS
VL: ETTLTQSPGTLSLSPGERATLSCRASHSFSSSYLAWYQQKPGQAPRLLIYAASNRATGIPDRFSGSGSGTDFTLTISRLEPEDFAVYFCQQYDSSPWTFGQGTKVEIK
notes: IgG
B14: ADI-15643 (antibody, V domains shown)
VH: B13 VH with K28R, Q82H, N101D
VL: B13 VL with T2I, T3V, S32T, V105L
notes: IgG
B15: ADI-15642 (antibody, V domains shown)
VH: EVQLVESGGGLIQPGGSLRLSCAASGFTVSSKYMSWVRQAPGKGLEWVSIIYSGGSTYHADSVKGRFTISRDNSKNTLYLQMNSLRAEDTAVYYCARDDYDFWSGNGPPEMAVWGQGTTVTVSS
VL: DIRMTQSPSSLSASVGDRVTITCRASQGISNYLAWYQQKPGKVPKLLIYAASTLQSGVPSRFSGSGSETDFTLTISSLQPEDVATYYCQKYNSVPLTFGQGTKVEIK
notes: IgG; also called Antibody Number 206
B16: ADI-15650 (antibody, V domains shown)
VH: B15 VH with H59Y
VL: B15 VL with I2M, M4L, K39R, K45Q, A50T, N92D
notes: IgG; also called Antibody Number 214
B17: ADI-15637 (antibody, V domains shown)
VH: QVQLVQSGAEVTKPGASVRVSCKFSAYTLSALSIHWVRQAPGKGLEWMGAFDPEDGEPIYSQHFQGRVTMTEDTSTQTAYMELNSLRSEDTAVYYCSSVGPAGWFDPWGQGTLVTVSS
VL: DIRLTQSPSSLSASVGDRVSITCRASQSISSYLHWYQQKPGKAPKLLIYAASSLQSGVPSRFSGSGSGSDFTLTISSLQPEDFATYYCHQSYIPPFTFGPGTKLEIK
notes: IgG; also called Antibody Number 202
B18: ADI-15597 (antibody, V domains shown)
VH: QVQLVQSGGGLVKPGGSLRLSCAGSGFTFSSYTLNWVRQAPGKGLEWVSSISSSSTYIYYADSVKGRFTISRDNAKNSLHLQMNSLRAEDTAVYYCARADYDRSVYHLNWFDPWGQGTLVTVSS
VL: QSVLTQPPSVSGAPGQRVTISCTGSSSNIGAGYDVHWYQQLPGAAPKLLIYGNTNRPSGVPDRFSGSKSGTSASLAITGLQADDEADYYCQSYDSSLSGTWVFGGGTKLTVL
notes: IgG
B19: ADI-15615 (antibody, V domains shown)
VH: B18 VH with Q1E, Q6E, S7T, F111L
VL: B18 VL with S2P
notes: IgG; also called Antibody Number 180
B20: ADI-15625 (antibody, V domains shown)
VH: EVQLVESGAEVRKPGASVQVSCKASGYTFTSYYMHWVRQAPGHGLEWMGMIYPSGGSTSYAQKFQGRVTMTRDTSTSTVYMELSSLRSEDAAVYYCARDRAGCSGGSCYYYGMDVWGQGTTVTVSS
VL: NFMLTQPPSVSVSPGQTASITCSGNKLGDKYACWYQQKPGQSPVLVISQDSKRPSGIPERFSGSNSGNTATLTISGTQAMDEADYYCQAWDSRTVVFGGGTKLTVL
notes: IgG; also called Antibody Number 190
B21: ADI-15563 (antibody, V domains shown)
VH: EVQLVESGGGLVQPGRSLRLSCAASGFTFDDYAMHWVRQAPGKGLEWVSGISWNSGIVKYADSVKGRFTISRDNAKNSLYLQMNSLRTEDTALYYCVKDGYTSSWHSDYHYGLDVWGQGTTVTVSS
VL: DIVMTQSPATLSLSPGDRATLSCRASQNVISNLAWYQQKPGQAPRLLIYTVSTRATGIPARFSGSGSGTDFTLTISSLQSEDFAVYYCQQYNNWPLTFGGGTKVEIK
notes: IgG

target: RSV F protein of subtype A strain A2, on virus (respiratory syncytial virus subtype A …, UniProt P03420 26-574); experiment: cell-based or functional assay

Row | Binder | Neut IC50 (ug/ml) subtype A
1 | B1 | 0.077 µg/mL
2 | B2 | 4.52 µg/mL
3 | B3 | 0.544 µg/mL
4 | B4 | 0.176 µg/mL
5 | B5 | 0.178 µg/mL
6 | B6 | 0.051 µg/mL
7 | B7 | > 10 µg/mL
8 | B8 | 0.115 µg/mL
9 | B9 | 0.064 µg/mL
10 | B10 | 0.099 µg/mL
11 | B11 | 0.018 µg/mL
12 | B12 | 0.008 µg/mL
13 | B13 | 0.443 µg/mL
14 | B14 | 0.039 µg/mL
15 | B15 | 0.499 µg/mL
16 | B16 | 8.3 µg/mL
17 | B17 | 0.357 µg/mL
18 | B18 | 0.163 µg/mL
19 | B19 | 0.977 µg/mL
20 | B20 | 0.239 µg/mL
21 | B21 | 0.014 µg/mL

target: RSV F protein of subtype B strain 18537, on virus (respiratory syncytial virus subtype B …, UniProt P13843 26-574); experiment: cell-based or functional assay

Row | Binder | Neut IC50 (ug/ml) subtype B
22 | B1 | 0.053 µg/mL
23 | B2 | 5.58 µg/mL
24 | B3 | 1.37 µg/mL
25 | B4 | 0.226 µg/mL
26 | B5 | > 10 µg/mL
27 | B6 | 0.033 µg/mL
28 | B7 | 2.19 µg/mL
29 | B8 | 0.226 µg/mL
30 | B9 | 0.145 µg/mL
31 | B10 | 0.207 µg/mL
32 | B11 | 0.021 µg/mL
33 | B12 | 0.006 µg/mL
34 | B13 | 0.377 µg/mL
35 | B14 | 0.115 µg/mL
36 | B15 | 0.005 µg/mL
37 | B16 | 0.016 µg/mL
38 | B17 | 1.05 µg/mL
39 | B18 | 1.79 µg/mL
40 | B19 | 1.68 µg/mL
41 | B20 | 1.2 µg/mL
42 | B21 | 0.047 µg/mL

target: T1, prefusion-stabilized RSV F ectodomain (DS-Cav1), subtype B (respiratory syncytial virus subtype B); experiment: BLI, IgG on sensor
T1 construct: extracellular domain; also called Prefusion subtype B
Protocol: IgG binding to DS-Cav1 and FA FP was determined by BLI measurements using a FortéBio Octet HTX instrument (Pall Life Sciences). […] Data was analyzed using the ForteBio Data Analysis Software 7. The data was fit to a 1:1 binding model to calculate an association and dissociation rate, and KD was calculated using the ratio kd/kₐ.

Row | Binder | Kd
43 | B1 | 1.4 nM
44 | B2 | 1.74 nM
45 | B3 | 1.51 nM
46 | B4 | 0.46 nM
47 | B5 | 0.402 nM
48 | B6 | 0.407 nM
49 | B7 | 0.329 nM
50 | B8 | 0.431 nM
51 | B9 | 0.438 nM
52 | B10 | 0.552 nM
53 | B11 | 0.555 nM
54 | B12 | 0.98 nM
55 | B13 | 0.351 nM
56 | B14 | 0.162 nM
57 | B15 | 2.81 nM
58 | B16 | 3.52 nM
59 | B17 | 6.13 nM
60 | B18 | 6.09 nM
61 | B19 | 11.6 nM
62 | B20 | 2.61 nM
63 | B21 | 2.2 nM
